Kd data for one molecule are collected here from publication PMC9714666 (Frontiers in Immunology, 2022).

Test [1] has as its target T1, SARS-CoV-2 Omicron (B.1.1.529) RBD, biotinylated (SARS-CoV-2 Omicron B.1.1.529 (BA.1), strain, biotinylated).
T1 construct: source: bought: ACRObiosystems
The experiment in a line: BLI. The settings on record: both partners purified.

The target of test [2] is T2, SARS-CoV-2 Omicron BA.5 RBD, biotinylated (SARS-CoV-2 Omicron BA.5, strain, biotinylated).
T2 construct: source: bought: ACRObiosystems
The experiment in a line: BLI. To be noted: both partners purified.

B1: D27LEY (antibody, V domains shown)
VH: QVQLQQSGAEVKKPGSSVKVSCKASGGTFGNWSISWVRQAPGQGLEWMGGIAPGRGEATYAQKFQGRVTITTDESTSTAYMELSSLRSEDTAVYYCARETWYTSGGMDVWGQGTTVTVSS
VL: SYELTQPPSVSVAPGKTARITCGGNNIGRKSVHWYQQKPGQAPVLVVYDDSDRPSGIPERFSGSNSGNTATLTISRVEAGDEADYYCQVYDLWSSDYVFGTGTKVEIK
What is called Kd is the equilibrium constant for the complex coming apart. High values mean weaker binding, low ones tighter binding. As for B1, the Kd in test [1] is 0.34 nM; in test [2] it was 0.37 nM.
